Experimental data reported in patent US20230416329A1, “A PEPTIDE WITH DISULFIDE BONDS AND INHIBITORY ACTIVITY AGAINST SERINE PROTEASES, DERIVED HYBRID PEPTIDES THEREOF, AND USES THEREOF” (INSTITUTE OF MATERIA MEDICA , CHINESE ACADEMY OF MEDICAL …, priority 2020, published 2023).

Experiments:
[1] = target: bovine trypsin (bovine), P00760; assay: cell-based or functional assay
[2] = target: PCSK9 protein (UniProt Q8NBP7); assay: PCSK9-LDLR in vitro binding assay kit, OD450/540; peptide 50 µM, PCSK9 75 ng/mL; inhibition of PCSK9 binding to LDLR

Sequence of bovine trypsin (bovine), P00760 (P00760 24-246): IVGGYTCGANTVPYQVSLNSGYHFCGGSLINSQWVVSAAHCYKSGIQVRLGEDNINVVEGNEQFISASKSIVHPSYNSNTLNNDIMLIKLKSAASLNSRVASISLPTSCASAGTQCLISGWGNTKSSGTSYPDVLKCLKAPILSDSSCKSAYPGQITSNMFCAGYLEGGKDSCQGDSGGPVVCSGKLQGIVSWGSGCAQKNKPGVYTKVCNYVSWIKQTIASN

| residual trypsin activity at 0.0000098 µM BT1 [1] | residual trypsin activity at 0.000098 µM BT1 [1] | residual trypsin activity at 0.00098 µM BT1 [1] | residual trypsin activity at 0.02439 µM BT1 [1] | residual trypsin activity at 0.0488 µM BT1 [1] | residual trypsin activity at 0.098 µM BT1 [1] | residual trypsin activity at 0.98 µM BT1 [1] | residual trypsin activity at 9.76 µM BT1 [1] | Inhibitory rate (%) [2] | Binder |
| --- | --- | --- | --- | --- | --- | --- | --- | --- | --- |
| 102% | 102% | 101% | 69.6% | 24.1% | 3.3% | 0% | 0% |  | GRCTKSIPPICFPD (modifications not checked) [BT1] |
|  |  |  |  |  |  |  |  | 15.8% | GTNEALDNNCGRATKSIPPICFTVFTS [PCSK9_13] |
